Experimental data from patent publication US20240010747A1, “ANTI-MRP4 (ENCODED BY ABCC4 GENE) ANTIBODIES AND USES THEREOF” (Kenjockety Biotechnology, Inc., priority 2020, published 2024).
Changes are numbered by the printed parent chain.

T1: human ABCC4 (Homo sapiens, UniProt O15439)
T1 construct: expressed in transfected cells
T1 sequence (O15439 1-1325): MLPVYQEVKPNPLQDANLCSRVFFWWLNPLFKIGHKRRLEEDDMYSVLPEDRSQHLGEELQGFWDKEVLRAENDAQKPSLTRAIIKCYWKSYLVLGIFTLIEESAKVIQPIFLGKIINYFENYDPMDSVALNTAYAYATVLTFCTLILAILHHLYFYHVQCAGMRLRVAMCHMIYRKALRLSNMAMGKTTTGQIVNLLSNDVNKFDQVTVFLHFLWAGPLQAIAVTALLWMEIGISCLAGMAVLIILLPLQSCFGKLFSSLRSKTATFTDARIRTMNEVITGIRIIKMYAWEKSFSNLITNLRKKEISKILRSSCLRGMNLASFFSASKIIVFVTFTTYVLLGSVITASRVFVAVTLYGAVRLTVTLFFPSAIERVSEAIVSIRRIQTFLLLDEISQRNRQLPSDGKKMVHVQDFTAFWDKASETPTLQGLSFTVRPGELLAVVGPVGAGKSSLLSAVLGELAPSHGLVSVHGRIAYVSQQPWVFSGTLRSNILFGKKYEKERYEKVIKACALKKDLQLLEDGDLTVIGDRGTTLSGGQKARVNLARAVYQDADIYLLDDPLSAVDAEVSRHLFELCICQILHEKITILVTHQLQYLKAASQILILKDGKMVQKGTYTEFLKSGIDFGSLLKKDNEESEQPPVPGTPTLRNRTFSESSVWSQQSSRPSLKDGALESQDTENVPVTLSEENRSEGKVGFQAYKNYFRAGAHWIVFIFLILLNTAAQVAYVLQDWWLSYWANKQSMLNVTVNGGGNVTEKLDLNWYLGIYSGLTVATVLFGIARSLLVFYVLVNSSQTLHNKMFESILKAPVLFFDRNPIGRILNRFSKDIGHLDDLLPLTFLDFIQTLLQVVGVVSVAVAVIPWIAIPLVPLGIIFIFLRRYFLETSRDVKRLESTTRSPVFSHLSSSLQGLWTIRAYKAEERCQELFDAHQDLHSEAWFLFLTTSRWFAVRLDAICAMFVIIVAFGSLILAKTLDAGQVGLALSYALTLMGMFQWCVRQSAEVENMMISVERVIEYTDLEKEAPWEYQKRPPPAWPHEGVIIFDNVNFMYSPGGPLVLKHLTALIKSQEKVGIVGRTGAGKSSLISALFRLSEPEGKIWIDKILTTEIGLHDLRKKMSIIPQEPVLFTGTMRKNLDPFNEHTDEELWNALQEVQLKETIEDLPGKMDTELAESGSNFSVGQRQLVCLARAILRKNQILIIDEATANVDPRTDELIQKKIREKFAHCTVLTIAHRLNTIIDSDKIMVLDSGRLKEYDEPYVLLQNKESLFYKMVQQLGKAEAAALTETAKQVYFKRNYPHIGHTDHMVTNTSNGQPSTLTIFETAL

B1: C4.1071: anti-ABCC4 antibody raised in rats; VH SEQ ID NO: 23, VL SEQ ID NO: 145 (antibody, V domains shown)
VH: EVQWKESGPGLVQPSQTLSLTCTVSGFSLTSYGVSWVRQPPGKGLEWIGAIWSGGGTDYNSALKSRLSISRDTSKSQVLLKMNSLQTEDTAMYFCAGNHYFDYWGQGTMVTVSS
VL: AIQVTQSPNSLSASLGDRVTLTCRASQDINNKMAWYQQKPGEVPQLLIYSASTLQSGTPSRFSGSGSGTDFSFTISHLQSEDFATYYCLQGYSLYTFGAGTKLELKRADAAP
B2: C4.1078: anti-ABCC4 antibody raised in rats; VH SEQ ID NO: 26, VL SEQ ID NO: 147 (antibody, V domains shown)
VH: EVQLVESGGGLVQPGGSLRLSCAASGFTFTDFYMSWIRQPPGKTPEWLGVIRNKAYVYTTEYNPSVKGRFTISRDNTQNILYLQMNTLRVEDTAIYYCARNWEGFASWGQGTLVTVSS
VL: DVVMTQTPPSLSVAIGQSVSISCKSSQSLVYSDGKTYLHWLLENSGRSPKRLIYRVSNLDSGVPDRFSGTGSQKDFTLKISRVEAQDLGVYYCAQTTHFPWTFGGGTKLELK
B3: C4.1047A: anti-ABCC4 antibody raised in rats; VH SEQ ID NO: 20, VL SEQ ID NO: 140 (antibody, V domains shown)
VH: EVQLMESGPGLVQPSQTLSLTCTVSGLSLISNNINWVRQPPGKGLEWIGAISGGGSAFYNSALKSRLSFSRDTSKSQVFLKMNSLQTEDTAIYFCARGGSEDPDYFDYWGQGVMVTVSS
VL: ETVMTQTPSSLAVSAGETVTINCRSSQSLLYSGNQKNYLAWYQQKPGQSPKLLIYWSSTRQYGVPDRFIGSGSGTDFTLTISSVQAEDLAIYYCQQYYDTPLTFGSGTKLELK
B4: C4.1052: anti-ABCC4 antibody raised in rats; VH SEQ ID NO: 20, VL SEQ ID NO: 141 (antibody, V domains shown)
VH: B3 VH
VL: B3 VL with E1D, T2I, T7S, R24K, Y62S, I69M, L112I
B5: C4.994: anti-ABCC4 antibody raised in rats; VH SEQ ID NO: 17, VL SEQ ID NO: 137 (antibody, V domains shown)
VH: QIQLVQSGPELKKPGESVKISCKASGYTFTDYAIHWVTQAPGKGLKWMGWISTYTGKTTYTDDFKGRFVFSLDASASTANLQINNLKNEDTAAYFCARGGLQWFDYWGQGTLVTVSS
VL: EILLTQSPTAMAASPGEKVTITCRASFRVSYMHWYQQKPGASPKPWIYDTSKLASGVPTRFSGSGSGTSYSFTISSMETEDTATYYCQQWTSNSRTFGGGTKLVLK
B6: C4.1138: anti-ABCC4 antibody raised in rats; VH SEQ ID NO: 29, VL SEQ ID NO: 149 (antibody, V domains shown)
VH: EVQLKESGPGLVKPSETLSLTCTVSGFSLTSYHVSWVRQPPGKGLEWMGVIWGDGNTAYNSALKSRLSINRDTSKSQVFLKMNSLQTEDTATYYCARHPYYSIPYWGQGASVTVSS
VL: DIVLTQSPTTMAAFPGEKVTITCRASSSVSYMYWYQQKSGASPKSWIYETSKLASGVPDRFSGSGSGTSYSFTISSMETEDAATYYCHQWSSIPLTFGSGTKLEIK
B7: C4.1006: anti-ABCC4 antibody raised in rats; VH SEQ ID NO: 19, VL SEQ ID NO: 139 (antibody, V domains shown)
VH: EVQLTESGPGLVQPSQTLSLTCTVSGFSLTSYDVHWVRQPPGKGLEWMGRMQNGGSTDYNSALKSRLSISRDTSKSQVFLKMNSVQTEDTAMYFCVRSFIIRGYWGQGASVTVSS
VL: DIVMTQGALPNPVPSGESASITCQSSKSLLYSDGKTYLNWYLQRPGQSPQLLIYWMSIRASGVSDRFSGSGSGTDFTLKISRVEAEDVGVYYCQQFLEFPYTFGAGTKLEIK
B8: C4.1155: anti-ABCC4 antibody raised in rats; VH SEQ ID NO: 35, VL SEQ ID NO: 154 (antibody, V domains shown)
VH: EVKLLESGGGLVQPGGSLRLSCATSGFSFTDFYMSWIRQPLGKAPEWLGVIRNRAIGFRTEYNPSVKGRFTISRDNTQNILYLQMNTLRTEDTAIYYCARNNLGFDYWGQGASVTVSS
VL: TPPSLSVAIGQSVSISCKSSQSLVYSDGKTYLHWLLQISGRSPERLIYQVSNLDSGVPDRFSGTGSQKDFTLKISRVEAKDLGFYYCAQTTHFPYTFGAGTKLELK
B9: C4.1145: anti-ABCC4 antibody raised in rats; VH SEQ ID NO: 32, VL SEQ ID NO: 151 (antibody, V domains shown)
VH: EVKLVESGGGLVQPGRSLKLSCAASGFTFSNYDMAWVRQAPTKGLEWVASIIPSGGTSYYRDSVKGRFTVSRDNAKSTLYLQMDSLRSEDTATYYCARLTTSHYYVMDAWGQGASVTVSS
VL: DIWMTQSPTSMSISVGDRVTMNCKASQNVGSNVDWYQQKTGQSPKLLIYKASNRYTGVPDRFTGSGSGTDFTFTISNMQAEDLAVYYCMQSNSYPWTFGGGTKLELK
B10: C4.1146: anti-ABCC4 antibody raised in rats; VH SEQ ID NO: 32, VL SEQ ID NO: 152 (antibody, V domains shown)
VH: B9 VH
VL: DIWMTKSPSSMSASLGDRVTITCQASQDIGNNLIWFQQKPGKSPRRMIYYATNLANGVPSRFSGSRSGSDYSLTIISLESEDMADYHCLQYKQYPYTFGAGTKLEIK

target: T1, human ABCC4; test: Flow cytometry (FACS) binding to C6 cells stably transfected to express human ABCC4 (different experiment, Table 4); details: C6 cells stably transfected to express human ABCC4, FACS; different experiment, Table 4
Description: (§1) Binding titration of recombinant antibodies to ABCC4 transfectants was performed by serial dilution of antibodies from about 666 nM. Diluted antibody in flow cytometry buffer was incubated with cells on ice for 30 min. After 2 washes with flow cytometry buffer, bound antibody was detected with PE-labeled F(ab′)2 fragment goat anti-human IgG (Jackson ImmunoResearch) diluted 1:200 in flow cytometry buffer and incubated with cells for 20 min on ice. After 2 washes with flow cytometry buffer fluorescence was measured on an Attune N×T flow cytometer. Data were analyzed with GraphPad Prism 8.0 software to determine EC50's.
(§2) Human embryonic kidney HEK 293T cells and murine C6 (ATCC CCL-107) were transfected with human or cynomolgus ABCC4 cDNA with C-terminal fused FLAG tag in a pMONO-hygro vector with Lipofectamine 3000 (Invitrogen #L3000001). The cells were treated with 0.2 mg/ml and 0.5 mg/ml hygromycin respectively for about 2 weeks while cultivated in DMEM and 10% FBS with 0.2 mg/ml hygromycin and 0.5 mg/ml hygromycin, respectively. The cells were washed with PBS, and stained with […] of anti-FLAG-PE after fixing and permeablization. Clones expressing ABCC4 were single-cell sorted into 200 μl DMEM with 10% FBS using a BD Aria FACS machine and cultivated in 96 well plates using standard techniques in an incubator at 37° C. and 5% CO 2. Two weeks later clones expressing high levels of ABCC4 were screened and amplified.
(§3) Antibody binding to cells was evaluated by flow cytometry. Murine C6 cells stably transfected to express human or cynomolgus ABCC4 were washed once in flow cytometry buffer (PBS+2% FBS+0.02% sodium azide), resuspended at 2×10^6 cells/mL in flow cytometry buffer, and dispensed into 96-well microtiter plates at 0.1 mL/well. Recombinant antibodies were added to cells at 5 ug/mL for initial binding confirmation, or serially diluted from 100 ug/mL in flow cytometry buffer. After incubating cells on ice for 30 min, cells were washed twice with flow cytometry buffer. Bound antibody was detected with PE-labeled F(ab′)2 fragment goat anti-human IgG (Jackson ImmunoResearch) and evaluated on an Attune N×T flow cytometer. EC50 is calculated to be the concentration of antibody that gives half maximal response.
(§4) In a different experiment, using a different C6.cC4 cell line, detecting the binding of anti-ABCC4 antibodies to C6 cells stably transfected to express human ABCC4 measured by FACS and to C6 cells stably transfected to express cynomolgus ABCC4 measured by FACS, the results set forth in Table 4 were obtained. Negative (−)=Rmax (MFI) below background level. Positive (+)=MFI>3× background level.

Molecule	Human ABCC4 binding
B1	+ (Positive (+)=MFI>3× background level)
B2	+ (Positive (+)=MFI>3× background level)
B3	+ (Positive (+)=MFI>3× background level)
B4	+ (Positive (+)=MFI>3× background level)
B5	+ (Positive (+)=MFI>3× background level)
B6	+ (Positive (+)=MFI>3× background level)
B7	+ (Positive (+)=MFI>3× background level)
B8	+ (Positive (+)=MFI>3× background level)
B9	+ (Positive (+)=MFI>3× background level)
B10	+ (Positive (+)=MFI>3× background level)

tested on: cynomolgus ABCC4; test: Flow cytometry (FACS) binding to C6 cells stably transfected to express cynomolgus ABCC4 (different experiment, different C6.cC4 cell line, Table 4); design: key to Cynomolgus ABCC4 binding: Negative (−)=Rmax (MFI) below background level; Positive (+)=MFI>3× background level; details: different C6.cC4 cell line, C6 cells stably transfected to express cynomolgus ABCC4, FACS; Table 4
Description: as §1, §2, §3, §4

Molecule	Cynomolgus ABCC4 binding
B1	−
B2	−
B3	−
B4	−
B5	−
B6	−
B7	−
B8	−
B9	−
B10	−
